# Substitutions are numbered along the chain they refer to. Values joined by “and” are separate entries in the source; they are usually repeats but may differ in a detail not shown here. Equal values may be shown once. Read-outs that look alike come from different tables or passages of the source.
# T1: recombinant canine β NGF (canine, UniProt Q29074 110-229 (pig entry))
# T1 construct: also called canine NGF
# T1 chain: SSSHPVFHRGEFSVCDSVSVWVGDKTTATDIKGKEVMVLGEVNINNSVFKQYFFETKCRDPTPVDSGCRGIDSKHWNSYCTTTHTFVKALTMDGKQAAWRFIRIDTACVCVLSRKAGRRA
# T2: recombinant canine β NGF (canine, UniProt Q29074 110-229 (pig entry))
# T2 chain: T1 chain
# B1: Mu73 Canine IgG1/k Chimera (antibody, V domains shown)
# VH: QVQLQQPGAELVKPGASVKLSCKASGYTFTNYWMHWVKQRPGQGLEWIGRIDPYGGGTKHNEKFKRKATVTADKSSSTAYILLSSLTSEDSAVYYCTRSGYDYYFDVWGTGTTVTVSS
# VL: DIQMTQSPASLSASVGETVTVTCRASENIYSFLAWHQQKQGKSPQLLVYNANTLAEGVPSRFSGSGSGTQFSLKINSLQPEDFGSYYCQHHFGTPFTFGSGTKLEIKR
# notes: also called PR-1290654; lot 1785658
# B2: Mu82 Canine IgG1/k Chimera (antibody, V domains shown)
# VH: QVQLKESGPGLVAPSQSLSITCTVSGFSLTGYNINWVRQPPGKGLEWLGMIWGYGDTDYNSALKSRLSISKDNSKSQVFLKMNSLQTDDTARYYCARDHYGGNDWYFDVWGTGTTVTVSS
# VL: DIQMTQTTSSLSASLGDRVTITCRASQDITNYLNWYQQKPDGTVKLLIYYTSRLHSGVPSRFSGSGSGTDYSLTISNLDQEDIATYFCQQGKTLPRTFGGGTKLEIKR
# notes: The exact junction was not checked; also called PR-1290658; lot 1785732
# B3: PR-1254981 (antibody, mouse IgG1, V domains shown)
# VH: EVQLVESGGGAVKPGGSLTLSCAASGFTFSNHYMYWVRQTPEKRLEWVASISDGGAYTFYPDTVKGRFTISRDNVNNNLYLQMRHLKSEDTAMYYCTREESANNGFAFWGQGTLVTVSA
# VL: DVLMTQTPLSLPVSLGDQASISCRSSQSILHSNGNTYLEWYLQKPGQSPNLLIYRVSNRFSGVPDRFSGSGSGTDFTLKISRVEAEDLGVYYCFQGAHVPFTFGSGTKLEIKR
# notes: also called 14A9; ML130-14A9.5B12
# B4: Mu81 Canine IgG1/k Chimera (antibody, V domains shown)
# VH: B3 VH
# VL: B3 VL
# notes: also called PR-1290657; lot 1778832
# B5: PR-1254980 (antibody, mouse IgG1, V domains shown)
# VH: EVQLQQSGAELVKPGASVKLSCTASGFNIKDTYIYWVKQRPEQGLEWIGRIDPANGNTIYASKFQGKATITADTSSNTAYMQLSSLTSGDTAVYYCAGYGYYAYWGQGTTLTVSS
# VL: DVVLTQTPLSLPVNIGDQASISCKSTKSLLNGDGFTYLDWYLQKPGQSPQLLIYLVSNRFSGVPDRFSGSGSGTDFTLKISRVEAEDLGVYYCFESNYLFTFGSGTKLEMKR
# notes: also called 23F1; ML129-23F1.4G3
# B6: Mu77 Canine IgG1/k Chimera (antibody, V domains shown)
# VH: B5 VH with T69S
# VL: B5 VL
# notes: also called PR-1290656; lot 1785699
# B7: PR-1254977 (antibody, mouse IgG1, V domains shown)
# VH: B5 VH with T69S
# VL: B5 VL
# notes: also called 21D4; ML129-21D4.4A11
# Legend:
# [1] = target: human β NGF (R&D Systems catalog #256-GF/CF) (human) (UniProt P01138); test: cell-based or functional assay
# [2] = target: T1, recombinant canine β NGF; test: SPR (Biacore T100), antibody captured on goat anti-canine IgG, canine NGF injected
# Method: Purified mouse/canine chimeric antibodies and caninized antibodies were analyzed for affinity to canine NGF using a Biacore T100 instrument. Goat anti Canine IgG (Southern Biotech) was immobilized at 5000-10000 RU on a CM5 chip using an amine coupling procedure according to the manufacturer's instructions (Biacore). […] The association rate was monitored for 5 min and the dissociation rate was monitored for 10-20 min. The chip surface was regenerated using 50-75 ul 10 mM glycine pH 1.5 at a flow rate of 50-100 ul/min. Data was analyzed using Biaevaluation T100 software version 2.0.2, software, GE Healthcare Life Sciences (Piscataway, N.J.). Overall affinity parameters established for mouse/canine chimeric antibodies is summarized in Table 22 and for caninized antibodies in Table 23. […] The overall KDs of the mouse/canine anti-NGF mAbs range from about 1300 pM to 1.6 pM. […] The overall KDs of the caninized anti-NGF mAbs range from about 42 pM to 1.2 pM.
# [3] = target: T1, recombinant canine β NGF; test: cell-based or functional assay
# [4] = target: T1, recombinant canine β NGF; test: direct ELISA, canine NGF coated at 1 µg/ml, mAb at 10 µg/ml
# Method: (§1) To determine if purified mouse anti-NGF mAbs bind to canine β NGF, ELISA plates were coated with 50 μl/well of canine NGF (Abbott Laboratories) at 1 μg/ml in PBS and incubated over night at 4° C. The plates were washed three times with PBS+Tween buffer. The plates were blocked with 200 μl/well of 2% milk in PBS for 1 hour at room temperature. The plates were washed three times as above. Purified antibodies were diluted to 0.4, 2, or 10 μg/ml. 50 μl of each concentration of purified antibody was added to the plates. The plates were incubated for 1 hour at room temperature. The plates were washed. 50 μl of a 5000-fold diluted goat anti-mouse IgG Fc-HRP (Thermo, catalog #31439) was added. The plates were incubated for 1 hour at room temperature. 50 μl of TMB (Invitrogen, catalog #00-2023) was added and the reaction was stopped using 2N H₂SO₄ (VWR, catalog # BDH3500-1). The absorbance at 450 nm was read on a Spectromax 2E plate reader (Molecular Devices). The results are shown in Table 9, and the numerical value indicates binding of mouse anti-NGF antibodies to canine β NGF.
# [5] = target: T1, recombinant canine β NGF; test: SPR (Biacore), mAb captured on goat anti-mouse IgG Fc, canine NGF injected; Average
# Method: (§2) A biomolecular protein interaction analysis was used to evaluate the binding kinetics of the interaction between the purified anti-NGF hybridoma antibodies and recombinant canine β NGF. The antibodies were captured using a goat anti-mouse IgG FC (10000 RU) surface which was directly immobilized to a CM5 chip using an amine coupling procedure according to the manufacturer's instructions (Biacore). A sample size of 5 μl of antibody at a concentration of 1 μg/ml was captured at 10 μl minute. Recombinant canine NGF was used as the antigen. Canine NGF was injected at 75 μl/min (concentration range: 5-0.039 nM) for mouse antibodies. The association rate was monitored for 3.3 minutes and the dissociation rate was monitored for 10 minutes. Aliquots of canine NGF were also simultaneously injected over a reference reaction CM surface to record any nonspecific binding background. The instrument sensitivity for on-rate is I×IO⁷, such that any on-rate that is faster than I×IO⁷ may not be accurately measured; the instrument sensitivity for off-rate is […], such that any off-rate that is slower than 1×10⁻⁶ may not be accurately measured. Therefore, an on-rate that is faster than 1×10⁷ is recorded as >1×10⁷ and an off-rate that is slower than 1×10⁻⁶ is recorded as <1×10⁻⁶.
# [6] = target: T1, recombinant canine β NGF; test: direct ELISA, canine NGF coated at 1 µg/ml, mAb at 0.4 µg/ml
# Method: as §1
# [7] = target: T1, recombinant canine β NGF; test: cell-based or functional assay
# [8] = target: T1, recombinant canine β NGF; test: SPR (Biacore), mAb captured on goat anti-mouse IgG Fc, canine NGF injected; Expt 2
# Method: as §2
# [9] = target: T1, recombinant canine β NGF; test: SPR (Biacore), mAb captured on goat anti-mouse IgG Fc, canine NGF injected; Expt 1
# Method: as §2
# [10] = target: T1, recombinant canine β NGF; test: cell-based or functional assay
# [11] = target: T1, recombinant canine β NGF; test: direct ELISA, canine NGF coated at 1 µg/ml, mAb at 2 µg/ml
# Method: as §1
# [12] = target: T3, biotinylated rat β NGF (rat, UniProt P25427 122-241, limits assumed, biotinylated); test: capture ELISA; supernatant 25-fold
# T3 construct: also called Biotinylated Rat NGF; rat NGF
# Method: (§3) The plates were washed three times with wash buffer. The plates were blocked with 200 μl of 2% milk and incubated for 1 hour at room temperature. The plates were washed as above. […] The positive control was crude sera (diluted 1:500 with PBS) isolated from a β NGF immunized mouse and the negative control was hybridoma supernatant derived from a mouse immunized with an antigen other than NGF. The plates were washed and then 50 μl of biotinylated human or rat β NGF at 50 ng/ml was added and incubated for 1 hour at room temperature. The plates were washed. […] The plates were incubated for 30 minutes at room temperature. The plates were washed and then TMB substrate (Invitrogen, catalog #00-2023) was added. The reaction was stopped using 2N H₂SO₄ (VWR, catalog # BDH3500-1). The absorbance at 450 nm was read on a Spectromax 2E plate reader (Molecular Devices); these absorbance readings are shown in Tables 1 and 2. The numerical value indicates binding of mouse anti-NGF antibodies to biotinylated human or rat β NGF.
# [13] = target: T4, biotinylated human β NGF (human, UniProt P01138 122-241, biotinylated); test: capture ELISA; supernatant 25-fold
# T4 construct: also called Biotinylated Human NGF; human NGF
# Method: as §3
# [14] = target: T3, biotinylated rat β NGF; test: capture ELISA; supernatant 5-fold
# Method: as §3
# [15] = target: T4, biotinylated human β NGF; test: capture ELISA; supernatant 5-fold
# Method: as §3
# [16] = target: T2, recombinant canine β NGF; test: cell-based or functional assay
# [17] = target: T3, biotinylated rat β NGF; test: capture ELISA; supernatant 125-fold
# Method: as §3
# [18] = target: T4, biotinylated human β NGF; test: capture ELISA; supernatant 125-fold
# Method: as §3
# [19] = target: T3, biotinylated rat β NGF; test: capture ELISA; supernatant 625-fold
# Method: as §3
# [20] = target: T4, biotinylated human β NGF; test: capture ELISA; supernatant 625-fold
# Method: as §3
# T3 sequence (P25427 122-241 limits assumed): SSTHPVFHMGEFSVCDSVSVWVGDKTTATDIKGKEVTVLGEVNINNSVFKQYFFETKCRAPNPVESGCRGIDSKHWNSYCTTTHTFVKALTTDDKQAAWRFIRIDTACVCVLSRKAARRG
# T4 sequence (P01138 122-241 limits assumed): as the sequence (P25427 122-241 limits assumed) above, with T3S, V6I, M9R, T37M, A60D, E65D, T92M, D94G, A117V, G120A counted along it
# Sequence of human β NGF (R&D Systems catalog #256-GF/CF) (human) (P01138 122-241 limits assumed): as the sequence (P25427 122-241 limits assumed) above, with T3S, V6I, M9R, T37M, A60D, E65D, T92M, D94G, A117V, G120A counted along it
molecule,measurement,setting,value
Unrelated hybridoma (antibody),"PathHunter % of max signal, supernatant 1000-fold",[1],136% and 144%
same,"PathHunter % of max signal, supernatant 5000-fold",[1],126% and 132%
same,"PathHunter % of max signal, supernatant 10000-fold",[1],138% and 137%
B1,Kd,[2],0.014 nM
same,koff,[2],9e-05 s⁻¹
same,"IC50, canine NGF-induced TF-1 cell proliferation (70 pM canine NGF)",[3],8 pM
B2,Kd,[2],0.0016 nM
same,koff,[2],1.4e-05 s⁻¹
same,"IC50, canine NGF-induced TF-1 cell proliferation (70 pM canine NGF)",[3],7 pM
B3,absorbance at 450 nm,[4],0.61 A450
same,Kd,[5],0.0167 nM
same,koff,[5],0.000134 s⁻¹
same,kon,[5],8.08e+06 M⁻¹ s⁻¹
same,absorbance at 450 nm,[6],0.229 A450
same,PathHunter IC50 (441 pM canine NGF),[7],0.279 nM
same,SureFire pERK IC50 (128 pM canine β NGF),[7],21.4 pM
same,Kd,[8],0.0187 nM
same,koff,[8],0.00014 s⁻¹
same,kon,[8],7.48e+06 M⁻¹ s⁻¹
same,Kd,[9],0.0147 nM
same,koff,[9],0.000127 s⁻¹
same,kon,[9],8.67e+06 M⁻¹ s⁻¹
same,"IC50, canine NGF-induced TF-1 cell proliferation (70 pM canine NGF)",[10],46 pM
same,absorbance at 450 nm,[11],0.458 A450
B4,Kd,[2],0.082 nM
same,koff,[2],0.00035 s⁻¹
same,"IC50, canine NGF-induced TF-1 cell proliferation (70 pM canine NGF)",[3],12 pM
B5,absorbance at 450 nm,[12],0.767
same,absorbance at 450 nm,[13],1.17
same,absorbance at 450 nm,[14],0.764
same,absorbance at 450 nm,[15],1.14
same,PathHunter IC50 (441 pM canine NGF),[16],< 1 nM
same,SureFire cellular pERK IC50 (128 pM canine NGF),[16],< 1 nM
same,absorbance at 450 nm,[17],0.737
same,absorbance at 450 nm,[18],0.979
same,absorbance at 450 nm,[19],0.528
same,absorbance at 450 nm,[20],0.696
B6,Kd,[2],0.021 nM
same,koff,[2],0.00019 s⁻¹
same,"IC50, canine NGF-induced TF-1 cell proliferation (70 pM canine NGF)",[3],28 pM
B7,absorbance at 450 nm,[12],0.76
same,absorbance at 450 nm,[13],1.04
same,absorbance at 450 nm,[14],0.787
same,absorbance at 450 nm,[15],1.15
same,PathHunter IC50 (441 pM canine NGF),[16],< 1 nM
same,SureFire cellular pERK IC50 (128 pM canine NGF),[16],< 1 nM
same,absorbance at 450 nm,[17],0.671
same,absorbance at 450 nm,[18],0.899
same,absorbance at 450 nm,[19],0.453
same,absorbance at 450 nm,[20],0.543
